Assay results from a protein production outcome set (Wang et al. 2014).

Assay: label from the status in PepcDB records

| Sequence | protein production |
| --- | --- |
| MALLKWIPARGTLPLSPKWVATTLADASPDSVPVLFLHGTLGSPGNFERPAQRLAQLGRPFFAPAYGEHGTADLDRSTAELLRYVDHLRDMGIKQVDIVGHSAGGLQGLRIAHARPGFVRKLIGLGAAFRGVPRTVRFKPVVKLITGQAVIQLTQEIPAELPDGVELVSIYSTADHIVPVASSTLGELIEITDIRHEDLPRQADVIMEALGYPAETDSPTD | failed |
| TGQGWMLNLRREKFQDPKVREALNLMFNFEWSNQTLFYGLYTRVDSFWENSYLEAEGAPSEAEAALLKPLVDEGLLPASILTEPPVSPPVSGERQLDRRNLRAASKLLDEAGWTVGSDGMRRNAKGEVLRVEFLNDSQTFDRVISPFVENLRALGVDALMTRVDNAQMESRTRPPSYDFDITTGNARTNYISGAELKQYYGSETADISAFNIMGLKDKAVDRMIEVVLAAKTSEELEVATKALDRVLRLQRFWVPQWYKA | failed |
| MACGATLKRPMEFEAALLSPGSPKRRRCAPLPGPTPGLRPPDAEPPPLQMQTPPASLQQPAPPGSERRLPTPEQIFQNIKQEYNRYQRWRHLEVVLSQSEACTSETQPSSSALTAPGSPGAFWMKKDQPTFTLRQVGIICERLLKDYEDKVREEYEQILSTKLAEQYESFVKFTHDQIMRRYGTRPTSYVS | failed |
| MHERTGLWRGITAVGALLLAVAIMAGTIMETYRTSLDAFVGTRSQRTVTDQSADNGDSWTYKSEYKTAKEAYEGFKKTAMDEAQETYVLLKNSDNALPLSKSAKITMFGVRSYAPVYGSSGGSVTDGNSTVEITKAFEEEGFQINPSMLKAYQNYFKDKKWTTPQFGGGILPEYEDITKYNDPCELSLDELAKLNPEYKSQYGEYQDAAIVVVGRPAGENGDGYYPGQDGLADGVNTVTGNILSLSDEEMALVNEAKANFSKVIVLVNSTNPMEIANLQDDPDIDAIMWIGYPGAYGFYGVADVLNGTVSPSAHLGDVMAKNSAVAPAMSNYGNVAWKNASDFSEDAAVNSYLMEAEGIYTGYRYYETRYADIVMGNGGDTASAGTYAASDGTVATADGTWDYANEVVYPFGYGLSYTTFEQKLDGVEIKGDKKTAVATVTVKNTGSVEGKSVIQLYASVPYTDYDKKNGVGKSAIQLMDFEKTNALKPGDSQTITMTVDLSNLASYDSNKAKTYIVDPGDYYFSIGDDVHDALNNVLAAQGYSESDGMTAAGDKTKTYTWSWDGGVDADTFATSSTGTKITNQLSDGKYATDYNAFDKGAVTYLTRSDWNGTFPKTYSGISANEEVSKLLNNDFIDLKSDGDVSDITIGDTSSSLTLNDMKGASYDDERWDELTSKVSVKEFMHFAETAFHAIGAIDSVGLQEMTTDDGPGGSDSHYLNEGQYQGKAYADADDYADKSSRVAPSPTNLAYSWNKELAYRNGEVILGESSLVFRLPIMIAPAMNLHRHAYNSRGVEYYSEDPILSGYIGSAVVQGAQSKGVLVNVKHLAFNDQEINRSGIATFMSEQKAREMELRNFQQAFEANGKPASFESDDAKKNTYTQGALGVMTSYNRIGAVASSANAAVMVNILRDEWGFTGYNVTDFTSVSPHAAPKESVLAGTSAFCGFGNQGVKYWDAATLSKDRDMLLAIKQNMHYSLWAIANSNAMNGVNSSTHTENVMTWWRAVYLGVIAASGVVTLIGLAGYTTTRIRPARNADNGPTAASK | failed |
| MAITVKGLTNKLTRTQRRIAVVEFIFSLLFFLPKEAEVIQADFLEYDTKERQLNEWQKLIVKAFSENIFSFQKKIEEQQLKNQLEIQTKYNKISGKKIDLLTTAVVLCALSEQKAHNTDKPLLISEALLIMDHYSQGAEKKQTHALLDKLL | not failed |
| MGKGDPKKPRGKMSSYAFFVQTCREEHKKKHPDASVNFSEFSKKCSERWKTMSAKEKGKFEDMAKADKARYEREMKTYIPPKGETKKKFKDPNAPKRPPSAFFLFCSEYRPKIKGEHPGLSIGDVAKKLGEMWNNTAADDKQPYEKKAAKLKEKYEKDIAAYRAKGKPDAAKKGVVKAEKSKKKKEEEEDEEDEEDEEEEEDEEDEDEEEDDDDE | failed |
| MMRFLFVDRIVQLSPGEWIKGIKHVTRDDAYLTTDDHGRLCFMPSLIGETLGQLAAWNVMQHNHFTARPVAGVVSSARLYRPAYVGETILLESNIDSLDEKAVQYHSIAKVGNDIIFTIDGALGPMLPMTEFISTEVIRQQFAEIYRPGDWSSVLALSSPVLIEENCSDCGMINSSMQFDRILASQPGISLIAEKRITRSASYFPDHFPKRPVLPMTVLLECKLNLAKEFIARAKYDRAYRISELRKIKMNEFVHPGDVVVCQVKVKQQMDDELILSYRCEVDGKRVCVVDIVLIPKGK | failed |
| MNQVHHAAQQGFSQAAELYQHARPNYPQAVVEWLKQDLRLNKYSKVVDLGAGTGKFLPYLKQVTTDIVAVEPVHEMLQQLQTAHPDIKVLQAQSTNIPLESESIDAVLCAQSFHWFANIESLNEIYQLLKPSGHLGLIWNQRDENIDWVKQIADMLMTFEGDTPRYHSGEWKKAFEHQHLFKLEHARVFSHVHTGTVEQVVSQRLLSTSFIAAMPEAQQQQLKQQFEHIVFECTGKQPTDQIDFPYITYAYDFKKI | failed |
| MNIRITNIQKQLHKYGIDGLLITKKENRQYATGFTGSAGVVLISADQAVFITDFRYVDQAKSQIQDAEIVMHKGNLEKEIAHQVSKLNIQKLGIEENNMTLQQYKNLQKYVHTEMIQVCEIIESIRIIKDTPEIETMKIAAHIADEAFHHILTFLKPGISENDVRDELEFFMRKKGATSSSFQIIVASGVRSSLPHGVASNKIIERSDIVTLDFGALYDGYCSDITRTVAIGEPSEEFKKIYNIVREALKRGTEAIKPGETAKRIDDITRNYITEHGYGQYFGHSTGHGLGLEIHEPLRLSQESKATLEEGMVVTVEPGIYIPNWGGCRIEDDIVITKDGYEVITKSNRELIVIPC | failed |
| MTGTRIAIGICTFRRPGIAATLASLGALRWPEGMSGLVIVADNDETPSARETVHAAAKGLPLPVCYLHAPARNISVARNAILEAAGARGLERLAFLDDDEMVEPGWIEALTEALARTGAEAVLGPVRAEHGAEAPAWMRESAIHDTRPTFLPDGSIKSGYSCNVLMDLTAPALEGLRFDPERGRSGGEDTAFFEAMLRRGGRLGFAPDALVRETVPADRARLGWLLRRRFRMGQTHASLIAGPGRAQRAKQALVALSKVAACSGMALAAVHDPLRRNNALLRGALHVGTLSALFGARPITIYGGTGPAPSTFDSKTDSYLVSRSRT | failed |
| QLSMLNPQKPMRRSEQHIARQVFSGLTRLDEEEQLQPDLAHAWQALSDTHWRFYLRPGVRFHNGNLLTTELIVQNLWQLRLLNLFAHIDRVDSPYPWAVDVHLQKPDTRLPLLLAEACAKILPAESDRNPDFDLMPVGTGPYKVVLND | failed |
| MRDRVRWRVLSLPPLAQWREVMAALEVGPEAALAYWHRGFRRKEDLDPPLALLPLKGLREAAALLEEALRQGKRIRVHGDYDADGLTGTAILVRGLAALGADVHPFIPHRLEEGYGVLMERVPEHLEASDLFLTVDCGITNHAELRELLENGVEVIVTDHHTPGKTPPPGLVVHPALTPDLKEKPTGAGVAFLLLWALHERLGLPPPLEYADLAAVGTIADVAPLWGWNRALVKEGLARIPASSWVGLRLLAEAVGYTGKAVEVAFRIAPRINAASRLGEAEKALRLLLTDDAAEAQALVGELHRLNARRQTLEEAMLRKLLPQADPEAKAIVLLDPEGHPGVMGIVASRILEATLRPVFLVAQGKGTVRSLAPISAVEALRSAEDLLLRYGGHKEAAGFAMDEALFPAFKARVEAYAARFPDPVREVALLDLLPEPGLLPQVFRELALLEPYGEGNPEPLFLLFGAPEEARRLGEGRHLAFRLKGVRVLAWKQGDLALPPEVEVAGLLSENAWNGHLAYEVQAVDLRKPEALEGGIAPFAYPLPLLEALARARLGEGVYVPEDNPEGLDYARKAGFRLLPPEEAGLWLGLPPRPVLGRRVEVALGREARARLSAPPVLHTPEARLKALVHRRLLFAYERRHPGLFSEALLAYWEVNRVQEPAGSP | not failed |
| MIDWPLAELLPHAGDMILIDQVLAFDEEQIRTRLEVRPGGLFNRPDGSLPAWVGVELMAQSVAAYAGCRARQQGLPVELGFLLGTRKFECNVEHFPLGSTLEIHALRSLEDDNGMGVFECHLSGPGITASARLNVFRPPQAADYLHETPASSTGTPS | failed |
| MACGEFSLIARYFDRVRSSRLDVELGIGDDCALLNIPEKQTLAISTDTLVAGNHFLPDIDPADLAYKALAVNLSDLAAMGADPAWLTLALTLPDVDEAWLESFSDSLFDLLNYYDMQLIGGDTTRGPLSMTLGIHGFVPMGRALTRSGAKPGDWIYVTGTPGDSAAGLAILQNRLQVADAKDADYLIKRHLRPSPRILQGQALRDLANSAIDLSDGLISDLGHIVKASDCGARIDLALLPFSDALSRHVVPEQALRWALSGGEDYELCFTVPELNRGALDVALGHLGVPFTCIGQMTADIEGLCFIRDGEPVTLDWKGYDHFATP | not failed |
| MCQMPCQFSWPYTHYFTQTKNKEKILNKLIVFTGGPGAGKTSVIEQLKTQGFICAPETGRHVIQMQVANHGSALPWNDKQAFRDEMTKEEVSNYRSFNVRQGDVFFDRSIVDVYGYSKLEQLPISHELITHCQTLRYHSQVFIFPPWASIFSNDEERKQDFSEAVATYQQMVDAYHKFGYQLIEVPKMSVEDRVAFILGSVIELEHHHHHH | not failed |
| MIPLHRLCRALALLMGFGPTLSALAASAPEGLPLLGTGEGLEVRGCETLVLRGGQVVRLAEIIGPEAEGAARAQAALGALVVGHSLRLYGESPLADRYGRLHAHGVTEEGRWVQGALVEAGLARVVIREGESALSGALLALEERARRAGRGLWPPASAASPPPGALAATGDGFQVVEGRIVSAARAGRRIYLNFGADWRSDFTVSLSEAMLARLLATGRDPLAWAGRRVRVRGWVTRRNGPLLDLPHPMALEGPLDGPPFLSPKENLDLEYPGN | failed |
| MIVRMRSCAQAAKVAEATGGVQLAGKPKPDGTPTFSRYVEIGVDFEAHRPVVESVSVLFELYDGDANSYAATGGPGAQLPSGWMVTAAKFEVEWPADPQRAGLVRSHFGARRKAFNWGLAQVKADLDAKAADPAHESVDWDLKSLRWAWNRAKDDVAPWWAENSKECYSSGLADLAQGLANWKAGKNGTRKGRRVGFPRFKSGRRDPGRVRFTTGTMRIEDDRRTITVPVIGPLRAKENTRRVQRHLVSGRAQILNMTLSQRWGRLFVAVCYALRTPTTRSPLTQPTVRAGMDLGVRTLATVATLDTATGEQTIIEYPNPAPLKATLVARRRAGRELSRRIPGSHGHRAVKAKLARLDRRCVHLRREAAHQLTTELAGTYGQVVIEDLDVAAMKRSMRRRAFRRSVSDAAMGLVAPQLAYKTAKCSGVLTVADRWFASSQIHHGCTSPDGTPCRLQGKGRIDKHLLCPVTGEVVDRDRNAALNLRDWPDNASRGPVGTTAPSAPGPTTTVGTGHGADTGSSGAGGASVRPRPRRAGRGEAKTQTPQGDAA | failed |
| MTGEEITAAIHQVLTERMNNRHLDGFGPQSRLNADLYLDSVLMLDLLLHLELDHGITAPEEAIATAAIQTVSDLVELLAGASPATSGASDTAVADGPDVHADVYPDIKVHCVVSCLCDAVKAAGLDHRPMYFGIWDADFAVSDKFELRYHTDHISHGFFCHWFHRLYGVRVTEWYDHSAGKQSNLARLIGLVDARRPTESVMVMLDMFHLPERENKFNQYPFPHYLMVEATPDPETWQVRDPDFRWEGPIAKERILNAVAQPSVGGGYIFDRCTMRLPAAVDIGDYFLACFVSDDNPLIRRLREIVDTHLGCRDGLRLQALGDAVRELPVLSIRKWAYEHGFAFFWRELRLPNDAFLTWCDRIEELALGLPALHLKILRLAQTEDRTCAADIHQTLDRLDALETAIKVKLHEVFVAWCSHQGLTRATPRERRVGAR | failed |
